The values that follow come from patent US20130289246A1.

Where two headings read alike, the source gives them in different places. Some results are limits rather than exact numbers.

In assay [1] the target is HA of A/California/04/2009 (H1N1) virus (Influenza A virus (H1N1)). Kind of assay: cell-based or functional assay.
For assay [2], the target named is HA of A/New Caledonia/20/1999 (H1N1) virus (Influenza A virus (H1N1)). Kind of assay: cell-based or functional assay.
For assay [3], the target named is HA of A/Weiss/1943 (H1N1) virus (Influenza A virus (H1N1)). Kind of assay: cell-based or functional assay.
In assay [4] the target is HA of A/New Jersey/11/1976 (H1N1) virus (Influenza A virus (H1N1)). Kind of assay: cell-based or functional assay.
Assay [5] concerns the target HA of A/swine/Iowa/15/1930 (H1N1) virus (Influenza A virus (H1N1)). Kind of assay: cell-based or functional assay.
The target in assay [6] is HA of A/Brisbane/59/2007 (H1N1) virus (Influenza A virus (H1N1)). Kind of assay: cell-based or functional assay.
The target of assay [7] is HA of A/L3/1947 (H1N1) virus (Influenza A virus (H1N1)). Kind of assay: cell-based or functional assay.
In assay [8] the target is HA of A/USSR/92/1977 (H1N1) virus (Influenza A virus (H1N1)). Kind of assay: cell-based or functional assay.
Assay [9] has as its target HA of A/South Carolina/1/1918 (H1N1), wild type, on VLP (Influenza A virus A/South Carolina/1/1918 (H1N1)) (UniProt Q9WFX3). Kind of assay: cell-based or functional assay.
The target of assay [10] is soluble 2004 H5 HA (Influenza A virus (H5N1, 2004)). Kind of assay: ELISA, recombinant mAb. In general terms: ELISA stands for enzyme-linked immunosorbent assay.
In assay [11] the target is 1997 H6N1 HA (Influenza A virus (H6N1, 1997)). Kind of assay: ELISA, recombinant mAb.
The target in assay [12] is recombinant soluble 1957 H2 HA (A/Japan/305+/1957) (Influenza A virus A/Japan/305+/1957 (H2N2)). Kind of assay: ELISA, recombinant mAb.
In assay [13] the target is recombinant soluble trimeric 2009 H1 HA (A/California/04/2009, wild type) (Influenza A virus A/California/04/2009 (H1N1)). Kind of assay: ELISA, recombinant mAb.
Assay [14] addresses 1997 H9N2 HA (Influenza A virus (H9N2, 1997)). Kind of assay: ELISA, recombinant mAb.
The target in assay [15] is soluble 1999 H1 HA (seasonal 1999 H1N1) (Influenza A virus (H1N1, 1999)). Kind of assay: ELISA, recombinant mAb.
Assay [16] addresses soluble 2004 H5 HA (Influenza A virus (H5N1, 2004)). Kind of assay: ELISA, recombinant mAb. The source holds these as a separate data set.
Assay [17] has as its target recombinant soluble 1957 H2 HA (A/Japan/305+/1957) (Influenza A virus A/Japan/305+/1957 (H2N2)). Kind of assay: ELISA, recombinant mAb. This is another data set of the same source.
Assay [18] concerns the target recombinant soluble trimeric 2009 H1 HA (A/California/04/2009, wild type) (Influenza A virus A/California/04/2009 (H1N1)). Kind of assay: ELISA, recombinant mAb. The source holds these as a separate data set.
Assay [19] addresses soluble 1999 H1 HA (seasonal 1999 H1N1) (Influenza A virus (H1N1, 1999)). Kind of assay: ELISA, recombinant mAb. This is another data set of the same source.
For assay [20], the target named is soluble 2004 H5 HA (Influenza A virus (H5N1, 2004)). Kind of assay: ELISA, supernate.
Assay [21] addresses recombinant soluble 1968 H3 HA (A/Aichi/2/1968) (Influenza A virus A/Aichi/2/1968 (H3N2)) (UniProt P03437). Kind of assay: ELISA, supernate.
Assay [22] deals with recombinant soluble 1957 H2 HA (A/Japan/305+/1957) (Influenza A virus A/Japan/305+/1957 (H2N2)). Kind of assay: ELISA, supernate.
Assay [23] concerns the target recombinant soluble trimeric 2009 H1 HA (A/California/04/2009, wild type) (Influenza A virus A/California/04/2009 (H1N1)). Kind of assay: ELISA, supernate.
Assay [24] addresses recombinant soluble trimeric 1918 H1 HA (A/South Carolina/1/1918, wild type) (Influenza A virus A/South Carolina/1/1918 (H1N1)) (UniProt Q9WFX3). Kind of assay: ELISA, supernate.
The target in assay [25] is soluble 1999 H1 HA (seasonal 1999 H1N1) (Influenza A virus (H1N1, 1999)). Kind of assay: ELISA, supernate.
The target of assay [26] is soluble 2004 H5 HA (Influenza A virus (H5N1, 2004)). Kind of assay: ELISA, supernate. The source holds these as a separate data set.
Assay [27] has as its target 1997 H6N1 HA (Influenza A virus (H6N1, 1997)). Kind of assay: ELISA, supernate.
Assay [28] addresses recombinant soluble 1968 H3 HA (A/Aichi/2/1968) (Influenza A virus A/Aichi/2/1968 (H3N2)) (UniProt P03437). Kind of assay: ELISA, supernate. This is another data set of the same source.
Assay [29] has as its target recombinant soluble 1957 H2 HA (A/Japan/305+/1957) (Influenza A virus A/Japan/305+/1957 (H2N2)). Kind of assay: ELISA, supernate. The source holds these as a separate data set.
The target in assay [30] is recombinant soluble trimeric 2009 H1 HA (A/California/04/2009, wild type) (Influenza A virus A/California/04/2009 (H1N1)). Kind of assay: ELISA, supernate. The source holds these as a separate data set.
Assay [31] concerns the target recombinant soluble trimeric 1918 H1 HA (A/South Carolina/1/1918, wild type) (Influenza A virus A/South Carolina/1/1918 (H1N1)) (UniProt Q9WFX3). Kind of assay: ELISA, supernate. This is another data set of the same source.
Assay [32] addresses 1997 H9N2 HA (Influenza A virus (H9N2, 1997)). Kind of assay: ELISA, supernate.
Assay [33] addresses soluble 1999 H1 HA (seasonal 1999 H1N1) (Influenza A virus (H1N1, 1999)). Kind of assay: ELISA, supernate. The source holds these as a separate data set.

B1: mAb 6D9 (antibody, V domains shown)
VH: EVQLVESGGGLVQPGGSLRLSCAASGFIFESYWMTWVRQAPGKGLEWVANIKQDGSEKNYVDSVKGRFTISRDNAKTSLYLQMNSLRAEDTAMYYCARSGSNWDTYYYYYGMDVWGQGTTVTVS
VL: EIVLTQSPGTLSLSPGERATLSCRASQSVDSNYLGWYQQRPGQAPRLLIYGASSRATGVPDRFSASGSGTDFTLSISRLEPEDFAVYYCQQYGSSFGQGTKVEIKR
With B1, the HAI activity in assay [1] was 0.7 µg/mL; in [2], > 20 µg/mL; in assay [3], > 20 µg/mL; in assay [4] it was 1.3 µg/mL; in assay [5], 0.4 µg/mL; in assay [6] it was > 20 µg/mL. In addition, the HAI activity in assay [7] is > 20 µg/mL; in assay [8], 2.5 µg/mL; in assay [9] it was 0.2 µg/mL.

B2: mAb 3N6 (recombinant) (antibody, V domains shown)
VH: QVQLQESGPGLVKPSETLSLTCSVSGGSINYYYWSWIRQPPGKGLECIGYISDTGRTYYNPSLRSRVTISVDTSKNQFSLNLTSMTAADTAVYYCARDPTGSRQKNAFDMWGQGTMVTVS
VL: AIQMTQSPSSLSASVGDRVTITCRASQNIRSYLNWYQQKPGKAPNLLIYGTTSLESGVPSRFSGSGSGTDFTLTISSLQPEDFATYYCQQSYHTPQTFGQGTKVEIKR
B2: the OD is 3.07 OD in [10]; 0.23 OD in [11]; 0.801 OD in assay [12]; 2.69 OD in assay [13]; 0.084 OD in assay [14]; 1.49 OD in assay [15]. Also, the OD worked out at 2.03 OD in assay [16], 0.57 OD in [17], 1.03 OD in assay [18] and 0.909 OD in [19].

B3: mAb 5I17 (antibody, V domains shown)
VH: EVQLVESGGGVVQPGRSLRLSCAASGFSFSNYAMHWVRQAPGKGLEWVALISFDGSDKYYADSVKGRFTMSRDNSKNTLYLQMNSLRAEDTAVYYCARDEPYCGGDCFAFDVWGQGTMVTVS
VL: DIQLTQSPSSLSASAGDRVSMTCRASQIISSSLNWYQQKPGKAPKLLIYAASNLQSGVPSRFSGSGSGTDFTLTISSLQPEDFATYYCQQSYSTPPELTFGGGTKVDIKR
With B3, the OD turned out to be 1.55 OD in [20]; 0.267 OD in assay [21]; 0.85 OD in [22]; 0.668 OD in assay [23]; 0.495 OD in assay [24]; 1.93 OD in [25]. Further, the OD in assay [26] is 1.17 OD; in [27], 0.11 OD; in assay [28], 0.156 OD; in assay [29] it was 1.38 OD; in assay [30] it was 0.566 OD; in assay [31], 0.522 OD. The OD in [32] was determined as 1.98 OD; in assay [33] it was 1.19 OD.

B4: mAb 6J24 (antibody, V domains shown)
VH: EVQLVESGGGLVQPGRSLRLSCVGSGFNFDGYAMQWVRQVPGKGLEWVSGISWHSDSTGYADSVRGRFTISRDNAKNSLYLQMDSLRPEDTAFYYCGKSIGHVGGSYRHPIDYWGQGTLVTVS
VL: DIQLTQSPSSLSASVGDRVTITCRASQGITDYLAWYQQKPGTIPKLLIYAASTLQSGVPSRFSGGGYGTDFTLTISSLQPEDVATYYCQKYNSAPLTFGGGTKVEIKR
With B4, the OD in [20] is 0.379 OD; in assay [22], 0.219 OD; in assay [23], 0.981 OD; in assay [25], 0.183 OD; in [26], 0.182 OD; in assay [27], 0.163 OD. Also, the OD in assay [29] amounted to 0.097 OD; in assay [30] it was 0.102 OD; in assay [32] it was 0.075 OD; in [33], 0.083 OD.
